Measurements as given in US20150368299A1 (published 2015).

Tests used:
Experiment in all cases: dot blot with densitometry; Aβ form dotted on nitrocellulose in serial dilution, antibody 0.2 µg/ml; higher value = weaker recognition
Aβ(12-42) globulomer = biological target: T1, Aβ(12-42) globulomer (human)
T1 construct: Non-covalent oligomer; the subunit number was not measured
T1 peptide: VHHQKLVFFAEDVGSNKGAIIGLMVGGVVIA
Protocol: (§1) The dot blot was developed with 10 ml BM Blue POD Substrate for 10 min. The development was stopped by intense washing of the dot blot with H₂O. Quantitative evaluation was done based on a densitometric analysis (GS800 densitometer (BioRad) and software package Quantity one, Version 4.5.0 (BioRad)) of the dot intensity. […] This threshold value was determined for every dot blot independently. The calculated value indicates the relation between recognition of Aβ(20-42) globulomer and the respective Aβ form for the given antibody.
(§2) The individual Aβ forms were applied in serial dilutions and incubated with the respective antibodies for immune reaction (1=Aβ(1-42) monomer, 0.1% NH₄OH; 2=Aβ(1-40) monomer, 0.1% NH₄OH; 3=Aβ(1-42) monomer, 0.1% NaOH; 4=Aβ(1-40) monomer, 0.1% NaOH; 5=Aβ(1-42) globulomer; 6=Aβ(12-42) globulomer; 7=Aβ(20-42) globulomer; 8=Aβ(1-42) fibril preparation; 9=sAPPα (Sigma); (first dot: 1 pmol)).

Aβ(1-42) fibril = biological target: T2, Aβ(1-42) fibril (human, UniProt P05067 672-713)
T2 construct: also called Aβ(1-42) fibrils; Aβ(1-42) fibril preparation
Protocol: as §1, §2

[1] = biological target: T3, Aβ(1-42) monomer in 0.1% NH4OH (human)
T3 construct: The range counts on the Aβ peptide; also called Aβ(1-42) monomer, 0.1% NH4OH
Protocol: as §1, §2

[2] = biological target: T4, Aβ(1-42) monomer in 0.1% NaOH (human)
T4 construct: also called Aβ(1-42) monomer, 0.1% NaOH
Protocol: as §1, §2

[3] = biological target: T5, Aβ(1-40) monomer in 0.1% NH4OH (human)
T5 construct: The range counts on the Aβ peptide; also called Aβ(1-40) monomer, 0.1% NH4OH
T5 sequence (peptide, as listed by the source): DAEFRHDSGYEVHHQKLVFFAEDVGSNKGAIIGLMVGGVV
Protocol: as §1, §2

Aβ(1-42) globulomer = biological target: T6, Aβ(1-42) globulomer (human, UniProt P05067 672-713)
T6 construct: the number was not measured for this preparation; also called 38/48-kDa Aβ(1-42) globulomer; Aβ(1-42) globular oligomer
Protocol: as §1, §2

Row | Binder | dot blot relation of recognition of Aβ(20-42) globulomer to recognition of this Aβ form (Aβ(12-42) globulomer) | dot blot relation of recognition of Aβ(20-42) globulomer to recognition of this Aβ form (Aβ(1-42) fibril) | dot blot relation of recognition of Aβ(20-42) globulomer to recognition of this Aβ form [1] | dot blot relation of recognition of Aβ(20-42) globulomer to recognition of this Aβ form [2] | dot blot relation of recognition of Aβ(20-42) globulomer to recognition of this Aβ form [3] | dot blot relation of recognition of Aβ(20-42) globulomer to recognition of this Aβ form (Aβ(1-42) globulomer)
1 | Anti-Aβ monoclonal antibody clone 6E10 (Covance cat. no. SIG-39320) (antibody, V domains shown) VH: EVQLQQSGAELVKPGASVKLCTASGFNIKDTYIHWVKQRPEQGLEWIGRFDPVNVNTRYDSRFRGKATITSDASSNTAYLHLNSLTSEDTAVYYCSRSYYNGRRRFTYWGQGTLVTVSA VL: DIVMTQSPSSLTVTAGEKVALTCKASQSLLSSGNQKNYLTWYQQKPGQPPKLLIYWASIRESGVPDRFTGSGSGTFFTLTISSVQAEDLAVYYCQNDYNYPFTFGSGTKLEIK | 6 | – | – | – | – | –
2 | murine monoclonal anti-Aβ(20-42) globulomer antibody m4C9 (antibody, V domains shown, Murine hybridoma antibody from mice immunized with Aβ(20-42) globulomer; also called mAb 4C9; Anti-Aβ monoclonal antibody clone m4C9) VH: QVQLQQPGAELVKPGASVKLSCKAPGYTFTSYWMHWVKQRPGQGLEWIGRIDPKSGDTKYTEKFKSKATLTVDKPSSTAYMQLSSLTSEDSAVYYCTTMSKLSGTHAWFAYWGQGTLVTVSA VL: DIKMTQSPSSMYASLGERVTITCKASQDINSYLTWFQQKPGKSPKTLIYRANRLVDGVPSRFSGSGSGQDYSLTISSLEYEDMGIYYCLQYDEFPLTFGAGTKLELK | 60000 | 32600 | 36000 | 39500 | 27300 | 30000
3 | murine monoclonal anti-Aβ(20-42) globulomer antibody m10B3 (antibody, V domains shown, Murine hybridoma antibody from mice immunized with Aβ(20-42) globulomer; also called mAb 10B3; Anti-Aβ monoclonal antibody clone m10B3) VH: EVKLVESGGGLVQPGGSRKLSCAASGFTFSDYEMVWVRQAPGEGLEWVAYISSGSRTIHYADTVKGRFTISRDNPKNTLFLQMSSLRSEDTAMYYCARTLLRLHFDYWGQGTILTVSS VL: not shown | 41000 | – | – | – | – | 57000
